Assay results taken from the supplement of paper PMC10065799, “High-throughput profiling of sequence recognition by tyrosine kinases and SH2 domains using bacterial peptide display” (eLife, 2023).

What was measured:
[1] = molecular target: c-Src SH2; assay: SH2 binding enrichment of the phosphorylated peptide, bacterial display (enrichment ratio); higher = better substrate or ligand; peptides without Tyr show the background
[2] = molecular target: SHP2-C SH2; assay: as above
[3] = molecular target: Grb2 SH2 (UniProt P62993); assay: as above
[4] = molecular target: Hck (UniProt P08631); assay: phosphorylation enrichment, bacterial display (enrichment ratio); higher = better substrate or ligand; peptides without Tyr show the background
[5] = molecular target: Fyn (UniProt P06241); assay: as above
[6] = molecular target: FGFR1 (UniProt P11362); assay: as above
[7] = molecular target: MERTK (UniProt Q12866); assay: as above
[8] = molecular target: Fes (UniProt P07332); assay: as above
[9] = molecular target: FGFR3 (UniProt P22607); assay: as above
[10] = system: c-Abl (mouse); assay: as above
[11] = system: Fer (mouse); assay: as above
[12] = system: AncSZ; assay: as above
[13] = molecular target: EPHB1 (UniProt P54762); assay: as above
[14] = system: c-Src; assay: as above
[15] = molecular target: Jak2 (UniProt O60674); assay: as above
[16] = molecular target: EPHB2 (UniProt P29323); assay: as above
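Wherever SH2 binding enrichment of the phosphorylated peptide, bacterial display is given: peptide library displayed on the E. coli surface as eCPX fusions, selected cells deep-sequenced, score is each peptide's frequency after selection divided by its frequency in the input.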
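Wherever phosphorylation enrichment, bacterial display is given: 11-residue human phosphosite peptides and single-mutation variants displayed on the E. coli surface, counted by deep sequencing, each peptide's frequency after selection divided by its frequency in the unselected input library; frequency after pTyr selection over input frequency; kinase dosed for 20-30% of maximal phosphorylation in three min.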

Chain of FGFR1 (P11362 whole entry, looked up): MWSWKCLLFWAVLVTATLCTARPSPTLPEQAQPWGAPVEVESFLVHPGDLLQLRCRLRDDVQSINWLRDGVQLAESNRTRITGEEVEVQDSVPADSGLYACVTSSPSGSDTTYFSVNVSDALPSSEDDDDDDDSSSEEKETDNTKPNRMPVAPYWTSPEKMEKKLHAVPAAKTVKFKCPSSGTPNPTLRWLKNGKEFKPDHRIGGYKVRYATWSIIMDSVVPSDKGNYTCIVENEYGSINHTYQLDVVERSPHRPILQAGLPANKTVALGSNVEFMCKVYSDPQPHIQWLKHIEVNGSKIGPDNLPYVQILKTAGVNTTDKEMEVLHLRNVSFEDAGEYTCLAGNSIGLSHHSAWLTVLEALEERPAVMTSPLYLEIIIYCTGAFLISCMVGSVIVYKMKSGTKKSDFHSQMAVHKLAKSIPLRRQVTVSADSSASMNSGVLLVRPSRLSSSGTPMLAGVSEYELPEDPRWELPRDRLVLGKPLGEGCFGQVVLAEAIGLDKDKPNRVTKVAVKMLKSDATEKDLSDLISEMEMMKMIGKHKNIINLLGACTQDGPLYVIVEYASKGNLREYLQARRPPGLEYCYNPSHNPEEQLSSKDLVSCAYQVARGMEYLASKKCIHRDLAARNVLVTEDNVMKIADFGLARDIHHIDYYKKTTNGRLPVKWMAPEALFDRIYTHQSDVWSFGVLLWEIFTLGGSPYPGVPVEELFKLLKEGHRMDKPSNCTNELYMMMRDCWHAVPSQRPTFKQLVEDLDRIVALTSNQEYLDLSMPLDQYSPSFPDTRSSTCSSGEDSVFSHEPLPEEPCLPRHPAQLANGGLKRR
Chain of EPHB2 (P29323 whole entry, looked up, the tested form may be a part): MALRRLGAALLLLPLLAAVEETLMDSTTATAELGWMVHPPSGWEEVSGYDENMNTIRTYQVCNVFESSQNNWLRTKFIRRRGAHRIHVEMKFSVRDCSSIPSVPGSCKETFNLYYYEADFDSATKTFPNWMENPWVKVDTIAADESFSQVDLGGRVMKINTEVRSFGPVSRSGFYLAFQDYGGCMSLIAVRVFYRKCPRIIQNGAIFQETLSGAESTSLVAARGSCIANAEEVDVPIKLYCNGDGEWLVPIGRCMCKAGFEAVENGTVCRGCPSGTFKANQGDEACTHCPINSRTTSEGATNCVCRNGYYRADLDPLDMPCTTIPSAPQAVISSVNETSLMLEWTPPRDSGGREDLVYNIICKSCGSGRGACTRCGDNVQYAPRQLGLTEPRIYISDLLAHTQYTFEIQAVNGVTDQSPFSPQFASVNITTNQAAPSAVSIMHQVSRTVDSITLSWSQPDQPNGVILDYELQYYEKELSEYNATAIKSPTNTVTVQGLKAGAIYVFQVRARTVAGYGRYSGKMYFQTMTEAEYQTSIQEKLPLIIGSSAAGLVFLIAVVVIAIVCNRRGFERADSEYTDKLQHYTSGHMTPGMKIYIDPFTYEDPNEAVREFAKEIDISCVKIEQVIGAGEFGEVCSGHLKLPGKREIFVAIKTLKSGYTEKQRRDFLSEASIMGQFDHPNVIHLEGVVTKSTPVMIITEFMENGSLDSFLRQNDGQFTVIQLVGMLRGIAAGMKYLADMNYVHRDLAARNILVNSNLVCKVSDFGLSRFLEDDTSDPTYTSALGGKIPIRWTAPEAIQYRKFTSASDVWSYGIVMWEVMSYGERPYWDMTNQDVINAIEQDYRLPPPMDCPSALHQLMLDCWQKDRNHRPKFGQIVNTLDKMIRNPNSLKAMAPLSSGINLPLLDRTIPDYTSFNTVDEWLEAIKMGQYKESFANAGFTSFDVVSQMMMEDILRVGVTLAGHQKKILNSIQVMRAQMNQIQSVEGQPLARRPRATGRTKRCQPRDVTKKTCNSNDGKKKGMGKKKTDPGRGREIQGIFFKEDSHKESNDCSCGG
Chain of Fyn (P06241 whole entry, looked up): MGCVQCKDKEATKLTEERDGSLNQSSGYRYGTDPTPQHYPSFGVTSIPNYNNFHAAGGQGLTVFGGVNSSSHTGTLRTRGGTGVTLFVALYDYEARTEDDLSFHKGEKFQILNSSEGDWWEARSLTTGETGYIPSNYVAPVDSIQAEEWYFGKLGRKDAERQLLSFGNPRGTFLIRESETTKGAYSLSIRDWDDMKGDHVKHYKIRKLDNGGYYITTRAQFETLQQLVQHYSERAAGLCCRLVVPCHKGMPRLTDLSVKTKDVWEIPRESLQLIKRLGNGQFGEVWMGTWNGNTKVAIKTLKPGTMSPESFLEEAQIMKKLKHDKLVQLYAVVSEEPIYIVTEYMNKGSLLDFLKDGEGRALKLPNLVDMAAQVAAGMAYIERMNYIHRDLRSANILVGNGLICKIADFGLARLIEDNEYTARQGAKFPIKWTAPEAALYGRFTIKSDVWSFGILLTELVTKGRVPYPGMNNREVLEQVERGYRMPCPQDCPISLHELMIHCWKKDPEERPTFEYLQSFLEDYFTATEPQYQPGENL
Chain of Grb2 SH2 (P62993 whole entry, looked up): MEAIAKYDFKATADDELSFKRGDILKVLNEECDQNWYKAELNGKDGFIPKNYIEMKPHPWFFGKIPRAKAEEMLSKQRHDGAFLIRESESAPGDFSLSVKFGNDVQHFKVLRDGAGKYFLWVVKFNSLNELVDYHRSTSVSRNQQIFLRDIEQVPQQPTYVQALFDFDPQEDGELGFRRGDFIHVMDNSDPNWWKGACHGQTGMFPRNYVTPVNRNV
Chain of MERTK (Q12866 whole entry, looked up): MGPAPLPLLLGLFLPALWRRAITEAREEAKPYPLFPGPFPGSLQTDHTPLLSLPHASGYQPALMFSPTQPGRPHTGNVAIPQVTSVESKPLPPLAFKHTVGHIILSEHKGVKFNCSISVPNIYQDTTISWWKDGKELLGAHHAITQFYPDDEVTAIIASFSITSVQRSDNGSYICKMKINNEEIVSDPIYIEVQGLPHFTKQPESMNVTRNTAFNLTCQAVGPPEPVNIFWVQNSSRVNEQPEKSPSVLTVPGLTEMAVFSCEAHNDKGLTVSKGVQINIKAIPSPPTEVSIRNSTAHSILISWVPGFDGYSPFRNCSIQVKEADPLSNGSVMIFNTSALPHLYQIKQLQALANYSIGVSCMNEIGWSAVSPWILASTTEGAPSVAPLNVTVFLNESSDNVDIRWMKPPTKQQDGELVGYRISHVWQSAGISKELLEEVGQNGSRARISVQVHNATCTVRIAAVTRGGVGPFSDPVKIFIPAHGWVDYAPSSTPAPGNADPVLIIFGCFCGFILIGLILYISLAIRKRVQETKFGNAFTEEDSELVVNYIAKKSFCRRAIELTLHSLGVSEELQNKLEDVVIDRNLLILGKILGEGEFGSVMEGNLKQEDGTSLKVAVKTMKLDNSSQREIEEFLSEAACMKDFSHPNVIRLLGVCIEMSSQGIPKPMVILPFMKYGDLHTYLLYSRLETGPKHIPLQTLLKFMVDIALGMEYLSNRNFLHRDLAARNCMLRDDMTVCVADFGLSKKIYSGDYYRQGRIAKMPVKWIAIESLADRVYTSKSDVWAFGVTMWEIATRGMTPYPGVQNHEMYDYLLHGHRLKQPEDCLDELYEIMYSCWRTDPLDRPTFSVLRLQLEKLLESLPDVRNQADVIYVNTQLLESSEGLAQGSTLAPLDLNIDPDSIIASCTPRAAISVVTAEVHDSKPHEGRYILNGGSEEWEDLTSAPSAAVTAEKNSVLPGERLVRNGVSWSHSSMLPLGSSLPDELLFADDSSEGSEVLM
Chain of FGFR3 (P22607 whole entry, looked up): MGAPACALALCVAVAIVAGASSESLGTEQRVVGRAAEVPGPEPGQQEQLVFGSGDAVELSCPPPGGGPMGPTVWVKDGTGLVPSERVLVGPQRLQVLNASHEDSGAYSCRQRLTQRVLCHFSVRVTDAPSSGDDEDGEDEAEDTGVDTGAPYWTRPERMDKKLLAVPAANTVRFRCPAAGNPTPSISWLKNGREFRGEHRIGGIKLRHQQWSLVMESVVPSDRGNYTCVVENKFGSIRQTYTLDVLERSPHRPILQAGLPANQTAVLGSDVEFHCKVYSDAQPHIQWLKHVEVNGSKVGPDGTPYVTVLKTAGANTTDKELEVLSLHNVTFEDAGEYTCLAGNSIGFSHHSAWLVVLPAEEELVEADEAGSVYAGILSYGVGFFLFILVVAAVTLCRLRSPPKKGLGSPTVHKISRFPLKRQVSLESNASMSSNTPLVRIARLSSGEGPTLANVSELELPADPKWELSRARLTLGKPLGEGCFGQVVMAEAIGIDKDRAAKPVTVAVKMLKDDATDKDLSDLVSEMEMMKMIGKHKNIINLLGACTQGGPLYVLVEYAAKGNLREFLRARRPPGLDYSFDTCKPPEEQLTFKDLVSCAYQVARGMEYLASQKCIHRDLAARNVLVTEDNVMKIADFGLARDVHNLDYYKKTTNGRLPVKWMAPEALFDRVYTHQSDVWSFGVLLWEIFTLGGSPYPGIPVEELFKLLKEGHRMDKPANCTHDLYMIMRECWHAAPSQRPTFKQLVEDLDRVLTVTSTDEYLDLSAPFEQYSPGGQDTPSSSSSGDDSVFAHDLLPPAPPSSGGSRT
Chain of Hck (P08631 whole entry, looked up): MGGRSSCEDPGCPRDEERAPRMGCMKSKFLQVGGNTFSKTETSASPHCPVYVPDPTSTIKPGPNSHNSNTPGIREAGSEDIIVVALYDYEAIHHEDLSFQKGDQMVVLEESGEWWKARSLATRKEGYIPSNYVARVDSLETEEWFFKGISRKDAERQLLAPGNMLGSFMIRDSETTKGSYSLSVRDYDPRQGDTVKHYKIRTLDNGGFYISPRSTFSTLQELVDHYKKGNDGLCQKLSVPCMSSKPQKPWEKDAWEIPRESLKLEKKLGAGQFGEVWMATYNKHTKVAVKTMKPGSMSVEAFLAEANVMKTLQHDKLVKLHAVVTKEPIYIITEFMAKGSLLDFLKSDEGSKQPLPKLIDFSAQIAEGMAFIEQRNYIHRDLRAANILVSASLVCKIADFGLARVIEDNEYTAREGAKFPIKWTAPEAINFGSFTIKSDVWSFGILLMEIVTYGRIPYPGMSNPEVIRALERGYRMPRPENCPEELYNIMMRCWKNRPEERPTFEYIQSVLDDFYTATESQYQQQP

Sequence | SH2 binding enrichment [1] | SH2 binding enrichment [2] | SH2 binding enrichment [3] | phosphorylation enrichment [4] | phosphorylation enrichment [5] | phosphorylation enrichment [6] | phosphorylation enrichment [7] | phosphorylation enrichment [8] | phosphorylation enrichment [9] | phosphorylation enrichment [10] | phosphorylation enrichment [11] | phosphorylation enrichment [12] | phosphorylation enrichment [13] | phosphorylation enrichment [14] | phosphorylation enrichment [15] | phosphorylation enrichment [16]
SVTWTYSPALN [TP53_Y126_C124W] | 0.319 | 0.492 | 0.567 | 0.467 | 0.387 | 0.461 | 0.289 | 1.11 | 0.862 | 0.698 | 0.532 | 1.31 | 0.569 | 0.347 | 0.986 | 0.786
SVVVPYDPPEV [TP53_Y220_E221D] | 0.855 | 0.827 | 0.684 | 0.488 | 0.48 | 0.56 | 0.373 | 1.08 | 0.711 | 0.629 | 0.465 | 1.02 | 0.543 | 0.499 | 1.01 | 0.51
SWSTSYSGFRF [NKAPL_Y91_YF] | 0.774 | 1.55 | 1.13 | 0.858 | 0.739 | 0.637 | 0.535 | 1.38 | 0.719 | 0.728 | 1.61 | 1.17 | 0.588 | 1.69 | 0.821 | 0.663
SWSTSYSGYRY [NKAPL_Y91] | 1.03 | 1.88 | 1.17 | 0.701 | 0.706 | 0.707 | 0.461 | 0.925 | 0.656 | 0.652 | 0.591 | 0.825 | 0.596 | 1.7 | 0.741 | 0.619
SYCYRYCCAAR [SUMF1_Y344_R345C] | 0.931 | 0.627 | 1.13 | 0.497 | 0.43 | 0.47 | 0.437 | 0.976 | 0.769 | 0.622 | 0.457 | 0.968 | 0.392 | 0.369 | 0.679 | 0.553
SYCYRYRCAAQ [SUMF1_Y344_R349Q] | 1.5 | 1.43 | 1.42 | 0.5 | 0.419 | 0.499 | 0.515 | 0.599 | 0.464 | 0.471 | 0.346 | 0.768 | 0.382 | 0.399 | 0.599 | 0.424
SYTDPYAQPPL [KMT2D_Y2378] | 1.02 | 0.661 | 0.91 | 0.473 | 0.496 | 3.08 | 0.52 | 0.902 | 2.16 | 0.666 | 0.489 | 0.927 | 0.591 | 0.587 | 0.681 | 0.482
TAALWYIFLHT [ENG_Y612_S615L_YF] | 0.593 | 1.09 | 0.98 | 0.689 | 0.555 | 0.845 | 0.555 | 1.86 | 1.2 | 1.24 | 0.577 | 1.32 | 0.832 | 0.508 | 1.48 | 0.939
TAGFIYEKWEI [TEC_Y360_S359I] | 0.761 | 1.24 | 0.794 | 3.79 | 2.78 | 0.474 | 4.47 | 1.72 | 0.804 | 1.12 | 11.6 | 1.45 | 1.35 | 4.11 | 1.24 | 1.45
TALFIYIRPKA [OR10C1_Y258] | 0.494 | 0.721 | 0.891 | 0.523 | 0.55 | 0.556 | 0.388 | 1.22 | 0.712 | 0.624 | 0.508 | 1.23 | 0.406 | 0.304 | 0.945 | 0.697
TDLAYYLVCKG [ASL_Y376_R379C] | 0.461 | 0.829 | 0.959 | 0.75 | 0.689 | 2.39 | 0.79 | 1.57 | 2.33 | 0.903 | 0.581 | 1.46 | 0.883 | 0.825 | 1.74 | 0.66
TEFIQYMRRKN [MAX_Y73_YF] | 0.387 | 0.54 | 0.675 | 0.458 | 0.547 | 0.367 | 0.472 | 0.629 | 0.486 | 0.404 | 0.51 | 0.701 | 0.44 | 0.521 | 0.594 | 0.732
TENAGYFFRVS | 0.466 | 0.583 | 0.724 | 0.457 | 0.389 | 0.442 | 0.369 | 1.36 | 0.853 | 1.15 | 0.536 | 1.25 | 0.614 | 0.41 | 1.45 | 0.565
TEQDPYNNIDR [MMUT_Y364_V368D] | 2.23 | 0.731 | 0.798 | 0.501 | 0.505 | 0.728 | 0.475 | 1.06 | 0.641 | 0.658 | 0.486 | 1.08 | 0.638 | 0.486 | 0.791 | 0.565
TFEPNYGTVKQ [RAPGEF6_Y1447_YF] | 0.523 | 0.794 | 0.826 | 0.822 | 1.36 | 0.471 | 0.442 | 0.607 | 0.63 | 0.522 | 0.881 | 1.01 | 0.582 | 1.22 | 0.488 | 1.53
TFQFKYPEGSS [TGM4_Y440_E437Q_YF] | 0.568 | 0.896 | 0.955 | 0.491 | 0.529 | 0.521 | 0.44 | 0.943 | 0.722 | 0.564 | 0.363 | 0.841 | 0.496 | 0.427 | 0.69 | 0.478
TGHKGYVAFLE [CARD9_Y76] | 1.93 | 0.81 | 0.739 | 0.494 | 0.358 | 0.414 | 0.396 | 0.666 | 0.507 | 0.617 | 0.403 | 0.674 | 0.392 | 0.394 | 0.635 | 0.466
TIEDSYRKQVV [KRAS_Y40] | 0.428 | 0.6 | 0.818 | 0.358 | 0.388 | 0.398 | 0.369 | 0.79 | 0.561 | 0.599 | 0.348 | 0.62 | 0.383 | 0.426 | 0.703 | 0.371
TIMTDYNPNFC [ALK_Y1092_YF] | 0.633 | 0.674 | 0.999 | 0.47 | 0.499 | 0.533 | 0.395 | 0.917 | 0.549 | 0.783 | 0.373 | 0.858 | 0.498 | 0.545 | 0.795 | 0.491
TINPIHEHVGY [CHN1_Y143_Y143H] | 0.58 | 0.87 | 0.823 | 0.474 | 0.377 | 0.426 | 0.446 | 0.727 | 0.414 | 0.57 | 0.757 | 0.679 | 0.674 | 0.423 | 0.864 | 0.433
TISPFYCQSLF [CRYAA_Y48_R49C_YF] | 0.632 | 0.707 | 0.912 | 0.643 | 0.571 | 0.535 | 1.8 | 1.2 | 0.723 | 0.768 | 0.837 | 1.05 | 0.682 | 0.516 | 0.992 | 0.579
TISPYYRQSLF [CRYAA_Y48] | 0.678 | 0.767 | 0.783 | 0.433 | 0.414 | 0.613 | 0.468 | 0.787 | 0.653 | 0.617 | 0.479 | 0.859 | 0.526 | 0.492 | 0.745 | 0.474
TKQLTYEEQDL [PIK3C3_Y310] | 0.541 | 0.686 | 0.786 | 0.552 | 0.529 | 0.576 | 0.483 | 1.38 | 0.791 | 1.01 | 0.649 | 1.27 | 0.655 | 0.539 | 1.19 | 0.653
TKVTFYKQPMF [GBA_Y451_D448V] | 0.453 | 0.737 | 0.777 | 0.458 | 0.506 | 0.461 | 0.419 | 0.936 | 0.631 | 0.588 | 0.42 | 0.981 | 0.439 | 0.337 | 0.853 | 0.526
TKVVHYWKWIK [KLK2_Y249_R250W] | 1.12 | 1.45 | 1.41 | 0.501 | 0.346 | 0.489 | 0.51 | 0.975 | 0.58 | 0.714 | 0.378 | 0.812 | 0.494 | 0.474 | 0.802 | 0.364
TLARLYHRDST [LRIG1_Y1029_P1031R] | 0.552 | 0.608 | 0.963 | 0.409 | 0.565 | 0.563 | 0.522 | 0.844 | 0.729 | 0.761 | 0.71 | 0.761 | 0.501 | 0.449 | 0.61 | 0.539
TLEKFYFAFPG [SLC1A1_Y51] | 0.589 | 0.92 | 1 | 1.62 | 1.9 | 8.55 | 7.49 | 1.18 | 6.62 | 7.49 | 0.496 | 1.53 | 1.98 | 3.75 | 3.54 | 2.85
TLLERYGMTKI [ACSF3_Y355_E359K] | 0.433 | 0.636 | 0.884 | 0.478 | 0.484 | 0.513 | 0.407 | 0.734 | 0.667 | 0.728 | 0.374 | 0.751 | 0.531 | 0.43 | 0.625 | 0.594
TLMNAYSSCSH [KIF11_Y231_R234C] | 1.24 | 0.658 | 0.808 | 0.557 | 0.462 | 0.436 | 0.496 | 0.803 | 0.566 | 0.597 | 0.599 | 0.702 | 0.465 | 0.45 | 0.642 | 0.566
